Experimental data from patent publication US20170233490A1 (Hoffmann-La Roche, published 2017).

Columns and labels:
HER3 ECD-HRG complex [1] = target: T1, HER3 ECD-HRG complex (human, UniProt P21860 20-643); assay: SPR Biacore T100; reference: HER3-ECD without Heregulin
T1 construct: HER3 ECD preincubated with a 3- to 6-fold molar excess of Heregulin ('open' conformation); biotinylated Her3-ECD in the ribosome display; also called HER3-ECD/HRG1β
Experimental: (§1) A CM5 series sensor was mounted into the system and was normalized in HBS-ET buffer (10 mM HEPES pH 7.4, 150 mM NaCl, 3 mM EDTA, 0.005% w/v Tween 20) according to the manufacturer's instructions. The sample buffer was the system buffer supplemented with 1 mg/ml CMD (Carboxymethyldextran, Sigma #86524). The system operated at 25° C. 6500 RU RAM-Fcγ (relative units of Fcγ-fragment RamIgG, GE Healthcare) were immobilized according to the manufacturer's instructions using EDC/NHS chemistry on all four flow cells. The sensor was deactivated using 1M ethanolamine.

[2] = target: T2, human HER4 Extracellular Domain (ECD) (human, UniProt Q15303 26-651); assay: SPR Biacore T100, antibody captured, 25 C; SPR at 25 C, antibody captured, HER4-ECD without HRG
T2 construct: also called Her4 ECD; HER4-ECD
T2 sequence: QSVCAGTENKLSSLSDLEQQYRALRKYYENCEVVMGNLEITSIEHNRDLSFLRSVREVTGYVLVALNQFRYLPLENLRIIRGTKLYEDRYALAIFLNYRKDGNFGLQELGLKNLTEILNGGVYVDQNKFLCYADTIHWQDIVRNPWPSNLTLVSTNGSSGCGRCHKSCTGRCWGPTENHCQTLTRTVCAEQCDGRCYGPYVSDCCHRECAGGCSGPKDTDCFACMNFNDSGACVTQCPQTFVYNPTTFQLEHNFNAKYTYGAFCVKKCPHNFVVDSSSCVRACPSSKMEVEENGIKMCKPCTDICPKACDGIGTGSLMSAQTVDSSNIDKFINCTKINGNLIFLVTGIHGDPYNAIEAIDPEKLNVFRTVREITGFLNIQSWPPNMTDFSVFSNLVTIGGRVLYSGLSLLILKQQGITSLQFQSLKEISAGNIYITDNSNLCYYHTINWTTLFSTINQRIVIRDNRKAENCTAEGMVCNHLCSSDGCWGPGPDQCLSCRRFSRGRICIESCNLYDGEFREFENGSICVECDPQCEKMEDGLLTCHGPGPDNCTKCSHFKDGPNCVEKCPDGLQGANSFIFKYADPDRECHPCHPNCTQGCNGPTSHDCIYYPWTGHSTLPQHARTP
Experimental: as §1
The binding activity of the respective antibody against the analytes was kinetically tested. Antibodies were captured at 35 nM concentration by a 1 min injection at 5 μl/min. The flow rate was set to 100 μl/min.
Analytes in solution were injected at different concentration steps of 0 nM, 1.1 nM, 3.7 nM, 11.1 nM, 33.1 nM and 90 nM for 3.5 min. The dissociation was monitored for 15 min. Where possible, kinetic signatures were evaluated according to a Langmuir fit.

SBP-tagged HER3-ECD = target: T3, SBP-tagged HER3-ECD (human, UniProt P21860 20-643); assay: plate assay: SBP-tagged HER3-ECD on streptavidin plate, M-05-74 titrated in the presence of 10 nM Europium-labeled Heregulin-beta, time-resolved fluorescence; half-maximal promotion of HRG binding
T3 construct: from cell culture supernatant, held on a streptavidin plate; not shown: SBP tag
Experimental: On the next day the wells were washed three times with washing buffer (PBS+0.05% Tween-20) and blocked with PBS containing 1% BSA for one hour. After another three washes with washing buffer, 40 μl antibody solution (in Delfia Binding Buffer) was added to each well as a 2× stock of the desired final concentrations (10⁻³ to 10³ nM, alternatively 10⁻⁴ to 10² nM). […] The plates were incubated on a shaker at room temperature for two hours. Following three washes with Delfia Wash Buffer, Delfia Enhancement Solution was added and incubated on a shaker for 15 minutes (light protected). Finally, the plates were measured in a Tecan Infinite F200 reader using a time-resolved fluorescence measurement protocol.

[3] = target: T4, human HER1 Extracellular Domain (ECD) (human, UniProt P00533 25-645); assay: SPR Biacore T200, antibody captured, 25 C
T4 construct: also called Her1 ECD; HER1-ECD
Experimental: (§2) A Biacore T200 instrument (GE Healthcare) was mounted with a CMS series sensor. The sensor was normalized in HBS-ET buffer (10 mM HEPES pH 7.4, 150 mM NaCl, 3 mM EDTA, 0.05% w/v Tween 20) according to the manufacturer's instructions. The sample buffer was the system buffer supplemented with 1 mg/ml CMD (Carboxymethyldextran, Sigma #86524). The system operated at 25° C. 6500 RU RAM-Fcγ (relative units of Fcγ-fragment RamIgG, GE Healthcare) were immobilized according to the manufacturer's instructions using amine coupling EDC/NHS chemistry on all four flow cells. The sensor was deactivated using 1M ethanolamine. […] Concentration dependent kinetics were measured. […] All analytes were injected for 5 min association time and 10 min dissociation time at 100 μl/min flow rate. The sensor capture system was regenerated by a 3 min injection at 10 μl/min of 10 mM glycine pH 1.7. Where possible kinetic data was evaluated using the Biacore T200 evaluation software.

HER3 ECD-HRG complex [4] = target: T1, HER3 ECD-HRG complex; assay: SPR Biacore T200, antibody captured, 25 C
Experimental: as §2

TtSlyDcas = target: T5, TtSlyDcas; assay: SPR Biacore T200, antibody captured, 25 C
T5 construct: scaffold without hairpin insert, negative control
T5 chain: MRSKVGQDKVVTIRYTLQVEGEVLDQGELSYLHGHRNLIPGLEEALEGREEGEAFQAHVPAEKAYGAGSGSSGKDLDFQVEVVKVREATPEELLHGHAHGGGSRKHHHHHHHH
Experimental: as §2

- ratio MR (+Heregulin)/MR (-Heregulin) (HER3 ECD-HRG complex [1]): 3 fold
- ratio ka (Her3-ECD-HRG)/ka (Her3-ECD) (HER3 ECD-HRG complex [1]): 4.85 fold
- Kd [2]: 150 nM
- koff [2]: 0.001 s⁻¹
- kon [2]: 6700 M⁻¹ s⁻¹
- EC50 (read off the curve) (SBP-tagged HER3-ECD): ~0.3 nM
- binding result [3]: no binding (tested: up to 90 nM)
- Kd (HER3 ECD-HRG complex [4]): 2.8 nM
- MR (Molar Ratio) (HER3 ECD-HRG complex [4]): 0.8
- koff (HER3 ECD-HRG complex [4]): 0.00029 s⁻¹
- kon (HER3 ECD-HRG complex [4]): 100000 M⁻¹ s⁻¹
- MR (Molar Ratio) (TtSlyDcas): 0
- binding result (TtSlyDcas): no binding (tested: up to 90 nM)
B1: anti-HER3/HER4 antibody M-05-74 (antibody, V domains shown)
VH: QVQLQQSGAELAKPGASVKMSCKTSGYTLTDYWIHWVKQRPGQGLEWIGYINPYTGYTESNQKFKDKATLTADKSSNTAYIQLSSLTSEDSAVYYCARPYYYGDYWGQGTTLTVSS
VL: QIVLTQSPAIMSASPGERVTITCSASSSVSYMHWFQQKPGTSPKLLIYSTSNLASGVPARFSGSGSGTSYSLTISRMEAEDAATYYCQQRSSYPFTFGSGTKLEIK
notes: murine monoclonal IgG from hybridoma (supernatant or purified), bivalent; also called M-074; M-5-74
